# The domain aggregation screens of Martell et al. (2025)
# Assay: soluble fraction after stress (log2 fold change); higher = more stays soluble; pooled small domains, quantitative proteomics
# Conditions: stress: 75 degC
# 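Further: 20 min heating vs room temperature control held 20 min.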
row,Sequence,soluble fraction (log2)
1,HMATGGKIYIGMNDNGKVVGVSDADKLLEDIPNKVRDVLGIIVDVNLLEENGLKYIEIDVPPYSN,-0.698
2,HMATGIKAVDNVFGWMNLEQVAKTVGLDIPSVLRASGLPEDTPVDISIKKIPGVDDEELKDSLRQYIEKS,-0.107
3,HMATGTVKWFNPNKGFGFIQQDDASKDVFVHSNELNGVYINEGDKVEFDVVETEKGLSAQNIKK,0.222
4,HMATHGRRAVIELREKIVSGELPGGTRLFEVSLAETLDISRTPVREALSRLAEEGLLDRLPNGGFVVRR,-1.18
5,HMATIGVGSKVTLTTYVDWVGNGLLKTRDFYFVSELNGKRAVLRADSMNGAIYAAVNIDNLRI,-3.66
6,HMATINGIEKYLSSGLIPGIGPHTAKKLVEKFGLDTLDIMQYNPDRLTEVEGIGDKKAAKISEAFQEQK,0.00381
7,HMATKVNSGVTVRDLAELLGLSSADLIKKLMTMGEMATLTQTLTDDSVKAIADEYDRKIEIVSAAQ,0.536
8,HMATLTPLGRLQLARYHAQERATLAATAERFQVSTTTVRRWVGRYHQVVAAGGRPTTADMQDRPSRP,-2.07
9,HMATMSIDERILEIRSRAGLTQQEMADRLFVTRQAVSRWERGETVPGIDTLRLIAEAFDVRVDQILEL,-1.66
10,HMATQMSSARRGIATDEMKQVAKDEDVTLDWLLPKIAIGSIIIPSNNVRPQKIHNVGIGKGMKTKVN,0.195
11,HMATTTEPTSPPAATASLEAKINWLFLIFRNKKTVTASEQKFHAEDASTVVGKETLTDDGTTMTKGETAAG,-0.0674
12,HMATVELELKPEELRAGMILTKDLISGTGMMLLNKGVTLDNVKVEAIQRYYQLDPPLHGVFALVHGK,-1.32
13,HMATVGENIRRYRKAQNLSAAKLAEKVGLTQGAILHYERGIRTPGISQLEKIAHALNVSPRM,-0.144
14,HMATVPNVVGLSEEKAKSRLANNGLNVSVTTEEVSDKSKDGIVSSQTSEGDTVKQGATITITVGKYVEK,0.111
15,HMATYDIDALKVDLPSAKELAQFVYDKTDGLVSLDLIGKPKEEQYIVAKNALEGKKVPAEYLTGFNPY,0.702
16,HMATYTPYDKQGAKLWRVTAYLGMDSVTGKQRNMKKGGFKTKKEAQLYYNQVKLDFENGTLDQ,-1.36
17,HMAVEQLKSQIGGFLKANREQSFSAQNMADGLRMNSAAGYQDVVNAMNALVRDGEAVEKDGQFSYNVN,0.116
18,HMAVETYRVKKSDTMQTIADRFGLSVEELLEYNQAYKTRELRARDILIIPSRKERKKLQQQKAQAAAQVVQ,-0.632
19,HMAVGTASNLIGKDIEAYAPIDGSQSSDDTKTISGKVESVHIKDGVVYMNVKDSQSENIIEVEYGALIKVN,0.251
20,HMAVKPIDRLRSLMAESNVTDAELQKVVADKGHYAADAPIDSYSEKFISGWLIKYWSQILNLINADRTVL,-0.691
21,HMAVKTEHGRIWKALPEGQDGYREDVPMFTSKSMYDGSAGIGIFLIRLYEATSDERWLKEAEEAAAHII,0.157
22,HMAVLEGPAGKLGIVRFEANRSFTGMGHERFSSADQAFGTKPAAVVASRLFATGQVAGVHVYGNIITVELA,0.632
23,HMAVNDPDEKFIELGIPADWVQVVRKAGFQTVEALKTVENPNKLHQELSGLNKKMKLGLKTLSQDEVKDWF,0.0688
24,HMAVPMTPGELVGSRVRVLWWKDGRGEVVALARGHQATLPARSEEPLRTGADAVVLEADEGTLVVTS,-0.13
25,HMAVSGRMMVYEYIRQQMREGSLLPGSVLDLPAISHKLGISNTPLRDSLIRLEAEGYLTIYPRSKVVIN,-3.03
26,HMAVTGRVDLRIKPWGYVSVDGAAKVSSPPTMQLKLAPGRHEIEITNPAGAAVTKTVDVIAGKSVTVQHN,-0.0874

row,Sequence,soluble fraction (log2)
1,HMAVTKVKVITESSNLNIRKGPGTDQPIVGKAAHHEIITLVNKSNDQWWLVRTNDGEEGYSYSRYLEPVT,-0.667
2,HMAVVEVATTTATEYKVEKGHHFKVGDFVMFKTGAKSYAITAIDTTSPIFDKITVGTTLGEAIPVGGTLM,-1.62
3,HMAVVIPDVKGMTIEEAAPFLAEKGIRYNIIDSVFSKDVDPGAIVEIVPTPGSKVKEGRIVFVTINAK,-0.774
4,HMAVVQMVDRPGGLDELLKDVVRAGVNFANAYGRTASDGNSAFFVIDIQDIPGARQKLADVGLQILADEAV,-0.383
5,HMAWAVDVGVVGLFPGKAVLVIDGGAPRTVPVGANVGGVRLLAVDQGSATVEIGGKRQRLAIGQHAH,-1.69
6,HMAWIGEHTVTSEDTLSHIALKFYGHATPPYYKLIYEANKAIIGDNMNIIVPGQVLRIPALPEEL,-1.35
7,HMAYLTVPAVIAKDTKKSIQLLESKGFEVVIQDSIYTDTLARGTVIKQLPDPNATVKINRTVYLTVNRYTP,-2.41
8,HMAYQQITIKANVVNVRQGPGLSYDVMSQANKGETMNVISQKNNWYQVRLSGDKIGWVASWLVDNT,-3.08
9,HMAYWVVKNNQVSLQINRSNYQITSTARALSNGNLGDEIDVKVLQSGVIKKAVVIGKGQVELLR,-3.24
10,HMDAHIGTLTPRERETLHHLAIGHSNKVIAKKLNLAESTVKAYVQSILRKLGLSSRVQAAVYAIQHDIR,-0.702
11,HMDAIDPKTVTSWADLWKPEYKSSLLLTDDAREVFQMALRKLGYSGNTTDPKEIEAAYNELKKLMPNVAAF,-0.193
12,HMDAIDQDGNHMTFKRWGEQLQEAFQALEAYDTDKAKTILNELIKFPIDSDLNNALKGILSNIDEMMA,-0.914
13,HMDAINITTYKGQITLTGTKTGTLVGIYNTAGMLVKSMMSKGEKLYFDNLPSGVYIIKVGEEEPRKVQVI,-2.16
14,HMDAKIEYTMSDLIENRLINSDDASMRREKLSEILKIGYGNGKKTLHKLNSFGITREEFEEAMKEVNSH,0.0731
15,HMDAKIKDYADAYAKMDPQQAASLFNNMTTGSLDLVAKILENIPANKRAAILEKMDVNAAAQVTEKMR,-0.0156
16,HMDAKSRFQEWVQAETGITPTYRIIGDSGPDHAKTFIAQVLLGERVVGEGVGSSKRAAEQAAAQAALAAM,-0.0803
17,HMDAMMQRLERLKELASSADGSKDYLILGPLRRDLAKLMALEDPKLRQGAEELDRKILAILS,-0.477
18,HMDAPHPSVVQVYFESRDRSWTYYNDRFDLHEGDLVYVEGKLEGVRGRVVEVSYNFRIKLADYKRVIAVA,-3.29
19,HMDASSAVQFGSLLRDARRRQGLSQAELGGDKYSGSYISHLESGRRVATPEVIEFLSRRLGVSPLEWGVS,-0.0146
20,HMDASSTGFLGKHVQIVGLVSQPHLNGRRGVASRFDSNRRRYLVRLDEIDGHAEVVAFRPDNLVLSNLL,-0.627
21,HMDASVTIEQVERMVQANVSDDVIISQLQGRGAAQNLSTDDIINLTQKGISAEVIKAYQSAG,0.111
22,HMDAVLMEYDRLLALELTEDPDVYQDLLDKVREQSLGADGRVTDKYREKFDAVATRFDDYEDNYQW,-0.113
23,HMDAVQAGKRVLIVDDLIATGGTAKAATDLIEKAGGTVVGFSFVMRLDGLDGLDKLDGKPSSSLIAMP,0.193
24,HMDAYMGEAKDEETFAEEYLNDSGLLNEIPESVARYFDIVAYARDLLIGDFSLHDGHVFNMT,0.358
25,HMDDAFLNKEMLKQALENLNEREKKLIYLRFYEGLTQKEIADRLSLSQMHVSRLLNESLNKLRRKI,-0.44
26,HMDDATDLPYQEFRTQVSDGQVKIAQFNNNTGKITFESISGDKFKTSGPLELSSDDERLFLENIEDFKFFT,0.0939

row,Sequence,soluble fraction (log2)
1,HMDDATDVPYQEFRTQVTSGQVEIAQFNNNTGKISFQSTSGEKFETSGPLELSSDDERLFLENIEDFKFFT,0.416
2,HMDDATIKVNIAAKFLNAGNNLFVDIDTTVLEGRVLLTGLVDTQEVRIDAVRLVWEVEGIREVINEIEIG,-5.19
3,HMDDATTQLADRLLDLRRKAGYSQEQLADLLGVSRQAISKWEGAQGRPEVDNVVKLAQIYRVSTDFILTGS,-0.698
4,HMDDAVSHPDAGHIVTVTKVSADGTAEVMYRGASWRAKTADGSPLTAGSARIVRVDGAALVVEP,0.0931
5,HMDDDDPDQEIAQYYEKLRAMNPDEETKQKLSDEINKLSKMMYSSQEAMVSRNYLDTVFSLPWHQF,-0.146
6,HMDDEELDALKGIPANEYTQEQIKQISEVFHTLQKNEVKDWLNSLQLRNIELPFELRNEVFSQ,0.211
7,HMDDFPLKRGSKGNRVTLLQNALVKKYGAGILPKYGVDGMFGKEVEAALVHAKIPTTINEANYTKIV,-0.0514
8,HMDDFSETLLQYIKEKGGHISLNDKTDAGVIYETFGVSKKTFKKAVGDLYKKRLIVLEDTGIRL,-0.501
9,HMDDHLSFLAARLPDGASFDTDFDALGIDSFGMIALRAEVEERLGEQIADSDWTKVERPSEILAMLERK,-0.204
10,HMDDLATAYKAMGVDASISDKDLKRAYRKLMSQHHPDKMIAKGVPADMVAMATEKTQEIQAAYDLIERSR,0.203
11,HMDDLIIQIELKQEGLEITGLKVLLKEDSVIDEQVKQTIRRKIERFLVNLYGNPNVYVSKFSMGI,-0.296
12,HMDDLTTASIKQQLKALIDEENKNKPLSDQKLTDALKAQGIDISRRTVAKYREAMNIPGSSKRKRF,-0.0771
13,HMDDMVLEIGPGIGTMTQYLAEAAGKVVAVEIDRNLLPILQETLADYDNVKVIHADVLSLDLEKLVQEE,-0.0859
14,HMDDPDALITDSQLKAIHVLLGKLKIDDNLKHAYIADVLQLKDIPETLKTLTKHQGSTIIERLNLLIKDA,-0.0192
15,HMDDPLSQLTPREREVLELMASGASNQGIADALVITVRAVEKYVSSIFGKLGLPSTGSESRRVLAVLTFLR,-0.178
16,HMDDPYAGLRQRAYLFLRERDGAVPEEELIEHVFGSSGNPALWRPLLRQVLGADDRLDLRADGYWALRG,-0.187
17,HMDDSPTARALRTLDLIHNRPGITAAELADRLGVTERAVRRYVLTLRDAGVPVLGTPGRYGGYQVGK,-0.818
18,HMDDSVTFSEFVRMVDSGQVESVRITGNEVTGSDSTGNTFRTFVPPQYEGLVNRLVERDVAVTAEE,0.149
19,HMDDSVVFSLNAKGIRLTGAGKYGEAIALFDKAIAAKPGLSGLYFNRAEARRLSGDLPGARSDLEQALAI,-0.416
20,HMDDTRLELTLLGKIHNDEEINKQSHINVNIKNGVILLTGESPRREITERILTLARTFEHTRQIVNQIAT,0.0479
21,HMDDVIDVYATYDKSAEGVLSNIQLFSNQKKTTPITPESGKIYIDVEGNYQFRWTGTQYATV,0.15
22,HMDDYRSLRGQEKAAIFLMSLSQEQAAKIFANLDDEEIKEISQAMSSLGTVGSEIIERLFVEFAEQVSS,-1.21
23,HMDEARLAVASNLIRLRTDAGMTQAELGEKLNYSDKTISKWERAEAIPDAFVLKQIGELFHVSVDFLLRTH,-2.28
24,HMDEDTWKLYKRAYKKYYARYMKGNMSEEAFKTWAAQAARDRDAAIEQVKAALDENLKAQVIERLKEELNR,-0.831
